The results in this text go back to US6008014.

For the assay, the target named is GST-tchvs10a1 fusion protein (plasmid pGEX-4T-2-S10A1) (human). The experiment in a line: BIAcore (SPR); GST-tchvs10a1 captured on anti-GST antibody as ligand, GST-SR-BI at 200 nM as analyte. For orientation: SPR reads the build-up and loss of mass on a sensor chip optically.

The substance “GST-SR-BI cytoplasmic domain fusion protein (plasmid pGEX-4T-1-7-5j) (from UniProt Q8WTV0)” came in with a response (RU) of 220 RU.
